14 molecules from US20230051847A1 (Johns Hopkins, published 2023) can be followed below.

The target in assay [1] is T1, RAS Q61WT[55-64] pHLA-A1 (human).
T1 construct: also called Q61WT pHLA-A1; H/K/N RAS WT(55-64) peptide on HLA-A1
Kind of assay: ELISA, scDb at 10 nM on titrated biotinylated pHLA-A1 on streptavidin plate; protein L, anti-protein L HRP. (An ELISA detects its analyte on a solid surface through an enzyme-linked reagent.)

Assay [2] addresses p53^WT/HLA-A*02:01 pHLA (human). Kind of assay: flow cytometry: scFv phage supernatant on peptide-pulsed T2 cells (HLA-A2+), median fluorescence intensity. A general note: A flow cytometer gives signals particle by particle.
Method: Cells were stained with 50 μL of phage supernatant per 50 μL of cells, washed and stained with rabbit anti-M13 antibody, then washed and stained with anti-Rabbit-PE antibody. Cells were stained with a live/dead Near-infrared (IR) dye, washed, and analyzed by an iQue Screener (IntelliCyt, Albuquerque, N. Mex.).
The pulsed cells were pelleted, washed once in cold staining buffer (PBS containing 0.5% BSA, 2 mM EDTA, and 0.1% sodium azide), and resuspended in 50 μL of stain buffer. Phage staining was performed on ice with 50 μL monoclonal phage supernatant for 1 hour, followed by one 800 μL wash in cold staining buffer. Cells were then stained with 1 μg of rabbit anti-M13 antibody (Novus Biologics, Centennial, Colo.) in 100 μL total volume on ice for 1 hour and washed once with 800 μL of cold staining buffer. Cells were then stained with 5 μL anti-rabbit-PE (Biolegend) on ice for 1 hour in 100 μL total volume, followed by incubation with 200 μL LIVE/DEAD Fixable Near-IR Dead Cell Stain (Thermo Fisher) for 10 minutes at room temperature per manufacturer's instructions. Cells were washed once in 800 μL of staining buffer. Stained cells were analyzed using an iQue Screener (IntelliCyt, Albuquerque, N. Mex.).
In assay [3] the target is T1, RAS Q61WT[55-64] pHLA-A1. Kind of assay: flow cytometry: scFv phage supernatant on peptide-pulsed SigM5 cells (HLA-A1+), median fluorescence intensity.
For assay [4], the target named is T1, RAS Q61WT[55-64] pHLA-A1. Kind of assay: flow cytometry, phage on peptide-pulsed SigM5 cells; anti-M13, anti-rabbit PE.
In assay [5] the target is T1, RAS Q61WT[55-64] pHLA-A1. Kind of assay: ELISA, scDb at 10 nM on titrated biotinylated pHLA-A1 on streptavidin plate; protein L, anti-protein L HRP. The source holds these as a separate data set.
Assay [6] addresses p53^WT/HLA-A*02:01 pHLA (human). As to the kind of experiment: ELISA, scDb on biotinylated pHLA on streptavidin plate; protein L, anti-protein L HRP.
Method: Streptavidin-coated, 96-well plates (R&D Systems, Minneapolis, Minn., CP004) were coated with 50 ng of biotinylated HLA-A*02:01 pHLA monomers in 50 μL of blocking buffer (PBS with 0.5% BSA, 2 mM EDTA, and 0.1% sodium azide) or 25 ng of recombinant human CD3/6 (Acro Biosystems, DE, CDD-H52W4) at 4° C. overnight. […] Serial dilutions of scDb or IgG was incubated on the plate for 1 hour at RT and washed.
Assay [7] addresses T1, RAS Q61WT[55-64] pHLA-A1. Kind of assay: flow cytometry, phage on peptide-pulsed SigM5 cells; anti-M13, anti-rabbit PE. The source holds these as a separate data set.
For assay [8], the target named is T1, RAS Q61WT[55-64] pHLA-A1. The assay is described as above. This is another data set of the same source.

B1: H1-U scDb (bispecific antibody)
chain: DIQMTQSPSSLSASVGDRVTITCRASQDVNTAVAWYQQKPGKAPKLLIYSASFLYSGVPSRFSGSRSGTDFTLTISSLQPEDFATYYCQQVIYYPFTFGQGTKVEIKGGGGSEVQLQQSGPELVKPGASMKISCKASGYSFTGYTMNWVKQSHGKNLEWMGLINPYKGVSTYNQKFKDKATLTVDKSSSTAYMELLSLTSEDSAVYYCARSGYYGDSDWYFDVWGAGTTVTVSSGGGGSGGGGSGGGGSDIQMTQTTSSLSASLGDRVTISCRASQDIRNYLNWYQQKPDGTVKLLIYYTSRLHSGVPSKFSGSGSGTDYSLTISNLEQEDIATYFCQQGNTLPWTFAGGTKLEIKGGGGSEVQLVESGGGLVQPGGSLRLSCAASGFNLYSYAIHWVRQAPGKGLEWVALLYPDYGVTSYADSVKGRFTISADTSKNTAYLQMNSLRAEDTAVYYCSRYRSYEYSVSSYSYSAMDYWGQGTLVTVSSHHHHHH
For the molecule B1, the binding result in assay [1] is reported as “no binding (tested: 10 ug/mL coated pHLA-A1, scDb at 10 nM)”.

B2: p53_R175H_A2_cl16 (scFv)
scFv: DIQMTQSPSSLSASVGDRVTITCRASQDVNTAVAWYQQKPGKAPKLLIYSASFLYSGVPSRFSGSRSGTDFTLTITSLQPEDFATYYCQQQWSSPDTFGQGTKVEIKRTGGGSGGGGSGGGASEVQLVESGGGLVQPGGSLRLSCAASGFNLSYYDMHWVRQAPGKGLEWVALIYYGSGYTYYADSVKGRFTISADTSKNTAYLQMNSLRAEDTAVYYCSRGSYVSGMDYWGQGTLVTVSS
Turning to B2, in assay [2], the binding result is “no binding”.

B3: H/K/N RAS Q61H_A1_cl10 (scFv)
scFv: DIQMTQSPSSLSASVGDRVTITCRASQDVNTAVAWYQQKPGKAPKLLIYSASFLYSGVPSRFSGSRSGTDFTLTISSLQPEDFATYYCQQTYYTPVTFGQGTKVEIKRTGGGSGGGGSGGGASEVQLVESGGGLVQPGGSLRLSCAASGFNISHYVMHWVRQAPGKGLEWVADFYPHSDSTYYADSVKGRFTISADTSKNTAYLQMNSLRAEDTAVYYCSRYQSYSFDYWGQGTLVTVSS
Regarding B3, the binding result in assay [3] is given as “no binding”.

B4: p53_R175H_A2_cl6 (scFv)
scFv: DIQMTQSPSSLSASVGDRVTITCRASQDVNTAVAWYQQKPGKAPKLLIYSASFLYSGVPSRFSGSRSGTDFTLTISSLQPEDFATYYCQQQSSTPVTFGQGTKVEIKRTGGGSGGGGSGGGASEVQLVESGGGLVQPGGSLRLSCAASGFNVYQSDMHWVRQAPGKGLEWVATIWPYSGYTYYADSVKGRFTISADTSKNTAYLQMNSLRAEDTAVYYCSRDGMYAFDYWGQGTLVTVSS
Turning to B4, the binding result in assay [2] was “no binding”.

B5: H/K/N RAS Q61H_A1_cl1 (H1) (scFv)
scFv: DIQMTQSPSSLSASVGDRVTITCRASQDVNTAVAWYQQKPGKAPKLLIYSASFLYSGVPSRFSGSRSGTDFTLTISSLQPEDFATYYCQQVIYYPFTFGQGTKVEIKRTGGGSGGGGSGGGASEVQLVESGGGLVQPGGSLRLSCAASGFNLYSYAIHWVRQAPGKGLEWVALLYPDYGVTSYADSVKGRFTISADTSKNTAYLQMNSLRAEDTAVYYCSRYRSYEYSVSSYSYSAMDYWGQGTLVTVSS
notes: also called Q61H clone H1; H1 scFv
Turning to B5, the binding result in assay [4] was “no binding (tested: single dose (50 µL phage supernatant))”.

B6: p53_R175H_A2_cl15 (scFv)
scFv: DIQMTQSPSSLSASVGDRVTITCRASQDVNTAVAWYQQKPGKAPKLLIYSASFLYSGVPSRFSGSRSGTDFTLTISSLQPEDFATYYCQQSSYYPNTFGQGTKVEIKRTGGGSGGGGSGGGASEVQLVESGGGLVQPGGSLRLSCAASGFNLYQRDMHWVRQAPGKGLEWVAGLLYGSDHTEYADSVKGRFTISADTSKNTAYLQMNSLRAEDTAVYYCSRATYEEAFDYWGQGTLVTVSS
For the molecule B6, the binding result in assay [2] is on record as “no binding”.

B7: R6-U scDb (bispecific antibody)
chain: DIQMTQSPSSLSASVGDRVTITCRASQDVNTAVAWYQQKPGKAPKLLIYSASFLYSGVPSRFSGSRSGTDFTLTISSLQPEDFATYYCQQYSNYPLTFGQGTKVEIKGGGGSEVQLQQSGPELVKPGASMKISCKASGYSFTGYTMNWVKQSHGKNLEWMGLINPYKGVSTYNQKFKDKATLTVDKSSSTAYMELLSLTSEDSAVYYCARSGYYGDSDWYFDVWGAGTTVTVSSGGGGSGGGGSGGGGSDIQMTQTTSSLSASLGDRVTISCRASQDIRNYLNWYQQKPDGTVKLLIYYTSRLHSGVPSKFSGSGSGTDYSLTISNLEQEDIATYFCQQGNTLPWTFAGGTKLEIKGGGGSEVQLVESGGGLVQPGGSLRLSCAASGFNVFYGSMHWVRQAPGKGLEWVAFIGPDSTYTYYADSVKGRFTISADTSKNTAYLQMNSLRAEDTAVYYCSRDLGSAYAMDYWGQGTLVTVSSHHHHHH
Regarding B7, the binding result in assay [5] is “no binding (tested: 10 ug/mL coated pHLA-A1, scDb at 10 nM)”.

B8: H/K/N RAS Q61H_A1_cl2 (scFv)
scFv: DIQMTQSPSSLSASVGDRVTITCRASQDVNTAVAWYQQKPGKAPKLLIYSASFLYSGVPSRFSGSRSGTDFTLTISSLQPEDFATYYCQQYDYYPFTFGQGTKVEIKRTGGGSGGGGSGGGASEVQLVESGGGLVQPGGSLRLSCAASGFNISYEAMHWVRQAPGKGLEWVALIYPNHGITSYADSVKGRFTISADTSKNTAYLQMNSLRAEDTAVYYCSRYSSSAMDYWGQGTLVTVSS
For B8, in assay [3], the binding result is reported as “no binding”.

B9: H/K/N RAS Q61H_A1_cl3 (scFv)
scFv: DIQMTQSPSSLSASVGDRVTITCRASQDVNTAVAWYQQKPGKAPKLLIYSASFLYSGVPSRFSGSRSGTDFTLTISSLQPEDFATYYCQQSIYYPFTFGQGTKVEIKRTGGGSGGGGSGGGASEVQLVESGGGLVQPGGSLRLSCAASGFNLYTSQMHWVRQAPGKGLEWVALVYPGYYVTSYADSVKGRFTISADTSKNTAYLQMNSLRAEDTAVYYCSRGAYYYSSAMDYWGQGTLVTVSS
On to B9, for which, in assay [3], the binding result was “no binding”.

B10: H20-UCHT1-scDb (bispecific antibody)
chain: DIQMTQSPSSLSASVGDRVTITCRASQDVNTAVAWYQQKPGKAPKLLIYSASFLYSGVPSRFSGSRSGTDFTLTISSLQPEDFATYYCQQSNAYPITFGQGTKVEIKGGGGSEVQLQQSGPELVKPGASMKISCKASGYSFTGYTMNWVKQSHGKNLEWMGLINPYKGVSTYNQKFKDKATLTVDKSSSTAYMELLSLTSEDSAVYYCARSGYYGDSDWYFDVWGAGTTVTVSSGGGGSGGGGSGGGGSDIQMTQTTSSLSASLGDRVTISCRASQDIRNYLNWYQQKPDGTVKLLIYYTSRLHSGVPSKFSGSGSGTDYSLTISNLEQEDIATYFCQQGNTLPWTFAGGTKLEIKGGGGSEVQLVESGGGLVQPGGSLRLSCAASGFNLNSYYMHWVRQAPGKGLEWVAMIIPGYGYTNYADSVKGRFTISADTSKNTAYLQMNSLRAEDTAVYYCSRSYYMYMDYWGQGTLVTVSSHHHHHH
notes: single-chain diabody of H20 with the anti-CD3 scFv UCHT1; also called H20-scDb
With B10, in assay [6], the binding result is listed as “binds”.

B11: H/K/N RAS Q61L_A1_cl2 (L2) (scFv)
scFv: DIQMTQSPSSLSASVGDRVTITCRASQDVNTAVAWYQQKPGKAPKLLIYSASFLYSGVPSRFSGSRSGTDFTLTISSLQPEDFATYYCQQAVSYPWTFGQGTKVEIKRTGGGSGGGGSGGGASEVQLVESGGGLVQPGGSLRLSCAASGFNISSSGIHWVRQAPGKGLEWVAMVYGGSGYTNYADSVKGRFTISADTSKNTAYLQMNSLRAEDTAVYYCSRWAHYSAYMDYWGQGTLVTVSS
notes: also called Q61L clone L2; L2 scFv
Regarding B11, the binding result in assay [7] was “no binding (tested: single dose (50 µL phage supernatant))”.

B12: H/K/N RAS Q61H_A1_cl9 (scFv)
scFv: DIQMTQSPSSLSASVGDRVTITCRASQDVNTAVAWYQQKPGKAPKLLIYSASFLYSGVPSRFSGSRSGTDFTLTISSLQPEDFATYYCQQGEYSPLTFGQGTKVEIKRTGGGSGGGGSGGGASEVQLVESGGGLVQPGGSLRLSCAASGFNVFESAMHWVRQAPGKGLEWVAWVYGSYDYTYYADSVKGRFTISADTSKNTAYLQMNSLRAEDTAVYYCSRSFAYFQAMDYWGQGTLVTVSS
With B12, the binding result in assay [3] is reported as “no binding”.

B13: H/K/N RAS Q61H_A1_cl4 (scFv)
scFv: DIQMTQSPSSLSASVGDRVTITCRASQDVNTAVAWYQQKPGKAPKLLIYSASFLYSGVPSRFSGSRSGTDFTLTISSLQPEDFATYYCQQYDYYPFTFGQGTKVEIKRTGGGSGGGGSGGGASEVQLVESGGGLVQPGGSLRLSCAASGFNVFGYAIHWVRQAPGKGLEWVAEVYPGYDVTSYADSVKGRFTISADTSKNTAYLQMNSLRAEDTAVYYCSRYSWAGAFDYWGQGTLVTVSS
With B13, the binding result in assay [3] is “no binding”.

B14: H/R/N RAS Q61R_A1_cl6 (R6) (scFv)
scFv: DIQMTQSPSSLSASVGDRVTITCRASQDVNTAVAWYQQKPGKAPKLLIYSASFLYSGVPSRFSGSRSGTDFTLTISSLQPEDFATYYCQQYSNYPLTFGQGTKVEIKRTGGGSGGGGSGGGASEVQLVESGGGLVQPGGSLRLSCAASGFNVFYGSMHWVRQAPGKGLEWVAFIGPDSTYTYYADSVKGRFTISADTSKNTAYLQMNSLRAEDTAVYYCSRDLGSAYAMDYWGQGTLVTVSS
notes: also called Q61R clone R6; R6 scFv
As for B14, the binding result in assay [8] is “no binding (tested: single dose (50 µL phage supernatant))”.
